Experimental data as given in patent US20120034160A1 (AbbVie / Abbott, published 2012).
Several values for one entry are separate records, joined by “and”; a condition that tells them apart may be missing. Identical values can stand only once.

Legend:
Recombinant Human IL-1β [1] = target: T1, Recombinant Human IL-1β (human, UniProt P01584 117-269); assay: cell-based or functional assay
Recombinant Human IL-1β [2] = target: T1, Recombinant Human IL-1β; assay: Biacore SPR
Method: (§1) The BIACORE assay (Biacore, Inc, Piscataway, N.J.) determines the affinity of antibodies or DVD-Ig with kinetic measurements of on-rate and off-rate constants. Binding of antibodies or DVD-Ig to a target antigen (for example, a purified recombinant target antigen) was determined by surface plasmon resonance-based measurements with a Biacore® 1000 or 3000 instrument (Biacore® AB, Uppsala, Sweden) using running HBS-EP (10 mM HEPES [pH 7.4], 150 mM NaCl, 3 mM EDTA, and 0.005% surfactant P20) at 25° C. All chemicals were obtained from Biacore® AB (Uppsala, Sweden) or otherwise from a different source as described in the text. For example, approximately 5000 RU of goat anti-mouse IgG, (Fcγ), fragment specific polyclonal antibody (Pierce Biotechnology Inc, Rockford, Ill.) diluted in 10 mM sodium acetate (pH 4.5) was directly immobilized across a CM5 research grade biosensor chip using a standard amine coupling kit according to manufacturer's instructions and procedures at 25 μg/ml. Unreacted moieties on the biosensor surface were blocked with ethanolamine. Modified carboxymethyl dextran surface in flowcell 2 and 4 was used as a reaction surface. Unmodified carboxymethyl dextran without goat anti-mouse IgG in flow cell 1 and 3 was used as the reference surface. For kinetic analysis, rate equations derived from the 1:1 Langmuir binding model were fitted simultaneously to association and dissociation phases of all eight injections (using global fit analysis) with the use of Biaevaluation 4.0.1 software. Purified antibodies or DVD-Ig were diluted in HEPES-buffered saline for capture across goat anti-mouse IgG specific reaction surfaces. Antibodies or DVD-Ig to be captured as a ligand (25 μg/ml) were injected over reaction matrices at a flow rate of 5 μl/min. The association and dissociation rate constants, kₒₙ (M⁻¹s⁻¹) and koff (s⁻¹) were determined under a continuous flow rate of 25 μl/min. Rate constants were derived by making kinetic binding measurements at different antigen concentrations ranging from 10−200 nM. The equilibrium dissociation constant (M) of the reaction between antibodies or DVD-Igs and the target antigen was then calculated from the kinetic rate constants by the following formula: KD=koff/kₒₙ. Binding was recorded as a function of time and kinetic rate constants are calculated.

Recombinant Human IL-1β [3] = target: T2, Recombinant Human IL-1β (human, UniProt P01584 117-269); assay: Biacore SPR
T2 construct: bought reagent; also called IL-1B
Method: as §1

Recombinant Human IL-1β [4] = target: T1, Recombinant Human IL-1β; assay: Biacore SPR; C-terminal VD
Method in brief: (§2)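 First, goat anti-mouse IgG was immobilized on a CM5 chip by amine coupling. Next, test antibody or DVD-Ig (25 μg/ml) was captured. Then antigen at 10−200 nM flowed over at 25 μl/min, 25° C. Finally, association and dissociation phases were globally fitted to a 1:1 model.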

Recombinant Human IL-17 [5] = target: T3, Recombinant Human IL-17 (human, UniProt Q16552 20-155, limits assumed); assay: Biacore SPR; N-terminal VD
T3 construct: Bought reagent
T3 sequence (looked up): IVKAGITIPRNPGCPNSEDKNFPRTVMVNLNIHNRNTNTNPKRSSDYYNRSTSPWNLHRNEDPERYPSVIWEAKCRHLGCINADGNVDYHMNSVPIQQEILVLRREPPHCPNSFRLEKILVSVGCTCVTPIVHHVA
Method in brief: as §2

Recombinant Human IL-17 [6] = target: T3, Recombinant Human IL-17; assay: cell-based or functional assay
Recombinant Human IL-17 [7] = target: T4, Recombinant Human IL-17 (human, UniProt Q16552 20-155, limits assumed); assay: Biacore SPR
T4 construct: bought reagent
T4 sequence (looked up): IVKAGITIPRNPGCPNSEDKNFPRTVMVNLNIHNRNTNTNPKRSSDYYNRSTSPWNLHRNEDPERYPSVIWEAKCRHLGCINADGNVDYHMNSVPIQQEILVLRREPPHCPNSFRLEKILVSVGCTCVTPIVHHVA
Method: as §1

B1: AB272 (antibody, human IgG1, kappa, V domains shown)
VH: EVQLVESGGGLVQPGGSLRLSCAVSGFTLSDYGVSWIRQAPGKGLEWLGLIWGGGDTYYNSPLKSRLTISKDNSKSTVYLQMNSLRAEDTAVYYCAKQRTLWGYDLYGMDYWGQGTLVTVSS
VL: ETTVTQSPSSLSASVGDRVTITCITSTDIDVDMNWYQQKPGKPPKLLISQGNTLRPGVPSRFSSSGSGTDFTFTISSLQPEDFATYYCLQSDNLPLTFGQGTKLEIKR
notes: Parent antibody
- IL-1β Neutralization Assay EC50 (Recombinant Human IL-1β [1]): 298 pM
- Kd (Recombinant Human IL-1β [2]): 140 pM
- koff (Recombinant Human IL-1β [2]): 0.00056 s⁻¹
- kon (Recombinant Human IL-1β [2]): 4e+06 M⁻¹ s⁻¹

B2: AB271 (antibody, human IgG1, kappa, V domains shown)
VH: EVQLQESGPGLVKPSETLSLTCTVSGFSLSDYGVSWIRQPPGKGLEWLGLIWGGGDTYYNSPLKSRLTISKDNSKSQVSLKLSSVTAADTAVYYCAKQRTLWGYDLYGMDYWGQGTLVTVSS
VL: DTVVTQSPAFLSVTPGEKVTITCITSTDIDVDMNWYQQKPDQPPKLLISQGNTLRPGVPSRFSSSGSGTDFTFTISSLEAEDAATYYCLQSDNLPLTFGQGTKLEIKR
notes: constants by vectors: V1 wt hIgG1, V2 kappa
- Kd (Recombinant Human IL-1β [3]): 110 pM and 96 pM
- koff (Recombinant Human IL-1β [3]): 0.00055 s⁻¹ and 0.00057 s⁻¹ and 0.00051 s⁻¹
- kon (Recombinant Human IL-1β [3]): 5.1e+06 M⁻¹ s⁻¹ and 6e+06 M⁻¹ s⁻¹ and 4.6e+06 M⁻¹ s⁻¹

B3: AB271 (antibody, human IgG1, kappa, V domains shown)
VH: EVQLQESGPGLVKPSETLSLTCTVSGFSLSDYGVSWIRQPPGKGLEWLGLIWGGGDTYYNSPLKSRLTISKDNSKSQVSLKLSSVTAADTAVYYCAKQRTLWGYDLYGMDYWGQGTLVTVSS
VL: DTVVTQSPAFLSVTPGEKVTITCITSTDIDVDMNWYQQKPDQPPKLLISQGNTLRPGVPSRFSSSGSGTDFTFTISSLEAEDAATYYCLQSDNLPLTFGQGTKLEIKR
notes: Parent antibody
- IL-1β Neutralization Assay EC50 (Recombinant Human IL-1β [1]): 308 pM
- Kd (Recombinant Human IL-1β [2]): 110 pM
- koff (Recombinant Human IL-1β [2]): 0.00051 s⁻¹
- kon (Recombinant Human IL-1β [2]): 4.6e+06 M⁻¹ s⁻¹

B4: AB272 (antibody, human IgG1, kappa, V domains shown)
VH: EVQLVESGGGLVQPGGSLRLSCAVSGFTLSDYGVSWIRQAPGKGLEWLGLIWGGGDTYYNSPLKSRLTISKDNSKSTVYLQMNSLRAEDTAVYYCAKQRTLWGYDLYGMDYWGQGTLVTVSS
VL: ETTVTQSPSSLSASVGDRVTITCITSTDIDVDMNWYQQKPGKPPKLLISQGNTLRPGVPSRFSSSGSGTDFTFTISSLQPEDFATYYCLQSDNLPLTFGQGTKLEIKR
notes: as for B2
- Kd (Recombinant Human IL-1β [3]): 140 pM and 120 pM
- koff (Recombinant Human IL-1β [3]): 0.00053 s⁻¹ and 0.00066 s⁻¹ and 0.00056 s⁻¹
- kon (Recombinant Human IL-1β [3]): 3.9e+06 M⁻¹ s⁻¹ and 5.3e+06 M⁻¹ s⁻¹ and 4e+06 M⁻¹ s⁻¹

B5: AB270 (antibody, human IgG1, kappa, V domains shown)
VH: EVQLQESGPGLVKPSETLSLTCTVSGFSLSDYGVSWIRQPPGKGLEWLGLIWGGGDTYYNSPLKSRLTISKDNSKSQVSLKLSSVTAADTAVYYCAKQRTLWGYDLYGMDYWGQGTLVTVSS
VL: DTQVTQSPSSLSASVGDRVTITCITSTDIDVDMNWYQQKPGKPPKLLISQGNTLRPGVPSRFSSSGSGTDFTFTISSLQPEDFATYYCLQSDNLPLTFGQGTKLEIKR
notes: as for B2
- Kd (Recombinant Human IL-1β [3]): 89 pM and 82 pM and 80 pM
- koff (Recombinant Human IL-1β [3]): 0.00058 s⁻¹ and 0.00055 s⁻¹ and 0.00053 s⁻¹
- kon (Recombinant Human IL-1β [3]): 6.5e+06 M⁻¹ s⁻¹ and 6.7e+06 M⁻¹ s⁻¹ and 6.6e+06 M⁻¹ s⁻¹

B6: DVD1648 (bispecific antibody, human IgG1, kappa)
heavy: not shown
light: EIVLTQSPDFQSVTPKEKVTITCRASQNIGSELHWYQQKPDQSPKLLIKYASHSISGVPSRFSGSGSGTDFTLTINGLEAEDAATYYCHQSDTLPHTFGQGTKVDIKRTVAAPETTVTQSPSSLSASVGDRVTITCITSTDIDVDMNWYQQKPGKPPKLLISQGNTLRPGVPSRFSSSGSGTDFTFTISSLQPEDFATYYCLQSDNLPLTFGQGTKLEIKRTVAAPSVFIFPPSDEQLKSGTASVVCLLNNFYPREAKVQWKVDNALQSGNSQESVTEQDSKDSTYSLSSTLTLSKADYEKHKVYACEVTHQGLSSPVTKSFNRGEC
notes: DVD-Ig: outer AB275, inner AB272; V1/V2 vectors: wild type hIgG1, kappa
- C-Terminal VD IL-1β Neutralization Assay EC50 (Recombinant Human IL-1β [1]): 16200 pM
- Kd (Recombinant Human IL-1β [4]): 560 pM
- koff (Recombinant Human IL-1β [4]): 0.00075 s⁻¹
- kon (Recombinant Human IL-1β [4]): 1.3e+06 M⁻¹ s⁻¹
- Kd (Recombinant Human IL-17 [5]): 20 pM
- koff (Recombinant Human IL-17 [5]): 6.2e-05 s⁻¹
- kon (Recombinant Human IL-17 [5]): 3.1e+06 M⁻¹ s⁻¹
- N-terminal VD IL-17 Neutralization Assay EC50 (Recombinant Human IL-17 [6]): 8.9 pM

B7: AB273 (antibody, human IgG1, kappa, V domains shown)
VH: EVQLVQSGAEVKKPGSSVKVSCKASGYTFTDYEIHWVRQAPGQGLEWMGVNDPESGGTFYNQKFDGRVTLTADESTSTAYMELSSLRSEDTAVYYCTRYSKWDSFDGMDYWGQGTTVTVSS
VL: DIQMTQSPSSLSASVGDRVTITCRASSGIISYIDWFQQKPGKAPKRLIYATFDLASGVPSRFSGSGSGTDYTLTISSLQPEDFATYYCRQVGSYPETFGQGTKLEIKR
notes: as for B2
- koff (Recombinant Human IL-17 [7]): ≤ 1e-05 s⁻¹ and 1.2e-05 s⁻¹ and 1.3e-05 s⁻¹
